Data on 1 substance can be found in patent publication EP4722237A1, “METHOD FOR DETECTING BIOLOGICAL ACTIVITY OF INSULIN OR ANALOGUE THEREOF AND KIT” (Sunshine Lake Pharma Co., Ltd., priority 2023, dated 2024).

One assay deals with T1, insulin receptor B (Homo sapiens, UniProt P06213).
T1 construct: expressed in transfected cells; host or cells: HEK293 (HEK293-IRB monoclonal line; HEK293/IRB-STAT5b-03-Luciferase 001#clone)
In words: Luciferase reporter gene detection method (HEK293/IRB-STAT5b-03-Luciferase cells, luminescence signal). Format: cell-based. Conditions: after stimulation of cells. How it is done: ① 0.6 mM insulin glargine reference solution: An appropriate amount of insulin glargine reference was weighed, dissolved completely in 0.01 M HCL and diluted to 0.6 mM, and mixed thoroughly.
② 0.6 mM Insulin Glargine Test Solution: An appropriate amount of insulin glargine injection solution was taken.
③ 15000 nM Reference/Test Solution Stock Solution: 780 µl of 0.01 M hydrochloric acid solution was added to 20 µl of a 0.6 mM insulin glargine reference/test solution and mixed thoroughly.
④ […] control/test solution: 780 µl of DMEM medium containing 1% FBS (fetal bovine serum) was added to 20 µl of a 15000 nM reference/test solution.
⑤ Serial dilutions of control/test compounds: Dilutions were performed in a 96-well plate according to the method shown in Table 1.
The culture flask was taken out of the incubator, the culture medium was discarded, and 2 ml of DPBS (sterile saline) buffer was added and gently washed twice. 1 ml of DPBS and 1 ml of trypsin solution were slowly added along the cell-free side of the flask to digest the cells for approximately 2 min. […]
After 15 h of incubation, the 384-well plate was removed from the incubator and allowed to stand at room temperature for approximately 5 min. […] After 3 minutes, the luminescence signal was detected in the LUM mode on a multi-functional microplate reader. […]
On the technique in general: In a reporter assay the amount or activity of a reporter protein is the signal.

For the next assay, the target named is insulin IR β receptor (Homo sapiens, UniProt P06213). As to the kind of experiment: HTRF kit method (insulin receptor phosphorylation). In kind it is cell-based. Conditions: specificity comparison, Figure 6. The text has this: Currently, commercial kits such as HTRF (homogeneous time-resolved fluorescence) and AlphaElisa are commonly used to assess insulin activity. These assays measure insulin IR β receptor phosphorylation levels to characterize insulin's cellular bioactivity. On the one hand, commercial test kits such as HTRF and AlphaElisa are expensive and have high detection costs; on the other hand, technical means such as HTRF and AlphaElisa are relatively complicated to operate, usually requiring the addition of insulin drugs to co-incubate with cells, then adding lysis buffer for incubation and lysis, and then adding the corresponding phosphorylated antibody solution for incubation, and finally testing. Under normal circumstances, the sample volume of each step of these kits needs to be controlled to 4~8 µl, which requires a high level of operational skills of the analyst.
Two different analysts used the same batch of test products (prepared in 6 parallel portions) and reference products to perform tests using the HTRF kit method on different dates.
On the technique in general: In TR-FRET formats the signal depends on donor and acceptor labels being close together.

With liraglutide, the dose-effect relationship result with insulin receptor B is listed as “no obvious dose-effect relationship”. Further, the “response in HTRF kit assay” value in the assay with insulin IR β receptor was “no response”.
